From article PMC12916166 (The Journal of cell biology, 2025)

Biological target: Aip5C-L (997–1234) (S. cerevisiae, UniProt P43597 997-1233)
Assay: fluorescence polarisation

Aip5C-L (997–1234), sequence (P43597 997-1233): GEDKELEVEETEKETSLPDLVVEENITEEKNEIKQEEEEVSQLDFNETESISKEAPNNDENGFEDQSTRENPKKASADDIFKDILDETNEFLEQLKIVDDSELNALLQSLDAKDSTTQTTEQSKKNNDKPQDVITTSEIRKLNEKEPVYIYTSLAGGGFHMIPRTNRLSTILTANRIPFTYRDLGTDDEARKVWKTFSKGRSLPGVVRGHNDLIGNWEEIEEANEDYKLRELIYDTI

Kd: 85 nM
B1: Bud6 (1–145)-kCk-Alexa488 (domain or fragment, S. cerevisiae, UniProt P41697 1-145, looked up)
chain: MKMAVDDPTYGTPKIKRTASSSSSIETTVTKLLMSTKHLLQVLTQWSKGTTSGRLVSDAYVQLGNDFKVVSKFFMHAKVDMSDVGDVPMALRRVLEVTLREPPSDETLNKHLPKIREIIVTLLDKLKVKQAILKNMQQEHRISVK
modifications: Alexa488 maleimide on the single cysteine of the C-terminal KCK sequence
